Laboratory results from doi:10.1101/679431 (bioRxiv, 2019).

How the values were obtained:
native gel or EMSA = biological target: the molecule itself; assay: native gel or EMSA
[1] = biological target: the molecule itself; assay: affinity purification with mass spectrometry + native gel or EMSA

Protein	stoichiometry N (native gel or EMSA)	stoichiometry N [1]
endogenous TRAP1 (natural protein) STQTAEDKEEPLHSIISSTESVQGSTSKHEFQAETKKLLDIVARSLYSEKEVFIRELISNASDALEKLRHKLVSDGQALPEMEIHLQTNAEKGTITIQDTGIGMTQEELVSNLGTIARSGSKAFLDALQNQAEASSKIIGQFGVGFYSAFMVADRVEVYSRSAAPGSLGYQWLSDGSGVFEIAEASGVRTGTKIIIHLKSDCKEFSSEARVRDVVTKYSNFVSFPLYLNGRRMNTLQAIWMMDPKDVREWQHEEFYRYVAQAHDKPRYTLHYKTDAPLNIRSIFYVPDMKPSMFDVSRELGSSVALYSRKVLIQTKATDILPKWLRFIRGVVDSEDIPLNLSRELLQESALIRKLRDVLQQRLIKFFIDQSKKDAEKYAKFFEDYGLFMREGIVTATEQEVKEDIAKLLRYESSALPSGQLTSLSEYASRMRAGTRNIYYLCAPNRHLAEHSPYYEAMKKKDTEVLFCFEQFDELTLLHLREFDKKKLISVETDIVVDHYKEEKFEDRSPAAECLSEKETEELMAWMRNVLGSRVTNVKVTLRLDTHPAMVTVLEMGAARHFLRMQQLAKTQEERAQLLQPTLEINPRHALIKKLNQLRASEPGLAQLLVDQIYENAMIAAGLVDDPRAMVGRLNELLVKALERH	4	
TRAP1-GST fusion protein (natural protein) STQTAEDKEEPLHSIISSTESVQGSTSKHEFQAETKKLLDIVARSLYSEKEVFIRELISNASDALEKLRHKLVSDGQALPEMEIHLQTNAEKGTITIQDTGIGMTQEELVSNLGTIARSGSKAFLDALQNQAEASSKIIGQFGVGFYSAFMVADRVEVYSRSAAPGSLGYQWLSDGSGVFEIAEASGVRTGTKIIIHLKSDCKEFSSEARVRDVVTKYSNFVSFPLYLNGRRMNTLQAIWMMDPKDVREWQHEEFYRYVAQAHDKPRYTLHYKTDAPLNIRSIFYVPDMKPSMFDVSRELGSSVALYSRKVLIQTKATDILPKWLRFIRGVVDSEDIPLNLSRELLQESALIRKLRDVLQQRLIKFFIDQSKKDAEKYAKFFEDYGLFMREGIVTATEQEVKEDIAKLLRYESSALPSGQLTSLSEYASRMRAGTRNIYYLCAPNRHLAEHSPYYEAMKKKDTEVLFCFEQFDELTLLHLREFDKKKLISVETDIVVDHYKEEKFEDRSPAAECLSEKETEELMAWMRNVLGSRVTNVKVTLRLDTHPAMVTVLEMGAARHFLRMQQLAKTQEERAQLLQPTLEINPRHALIKKLNQLRASEPGLAQLLVDQIYENAMIAAGLVDDPRAMVGRLNELLVKALERH		4
